In PMC6265464:

B1: double-flap DNA (D181A/R192F crystal) (dsDNA)
DNA 1: CCTCTGCCTCAAGACGGG
DNA 2: GCCCGTCC
DNA 3: ACTTTGAGGCAGAG

How the values were obtained:
[1] = molecular target: full-length 3× Flag-tagged R192F hFEN1 (human) (UniProt P39748); experiment: co-IP
[2] = molecular target: hFEN1 D181A/R192F (1-333) (Homo sapiens, UniProt P39748 1-333, D181A;R192F); experiment: X-ray crystallography
Chain of hFEN1 D181A/R192F (1-333) (P39748 1-333 D181A/R192F): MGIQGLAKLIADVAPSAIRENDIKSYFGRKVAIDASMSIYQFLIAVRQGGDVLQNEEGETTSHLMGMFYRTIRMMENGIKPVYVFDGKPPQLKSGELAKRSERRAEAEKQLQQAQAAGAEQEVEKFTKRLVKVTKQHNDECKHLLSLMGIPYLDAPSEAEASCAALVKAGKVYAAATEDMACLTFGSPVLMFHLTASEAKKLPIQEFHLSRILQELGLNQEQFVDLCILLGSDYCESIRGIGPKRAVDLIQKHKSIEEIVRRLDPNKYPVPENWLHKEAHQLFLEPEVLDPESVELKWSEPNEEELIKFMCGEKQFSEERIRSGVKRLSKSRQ

Chain of full-length 3× Flag-tagged R192F hFEN1 (human) (P39748 whole entry R192F): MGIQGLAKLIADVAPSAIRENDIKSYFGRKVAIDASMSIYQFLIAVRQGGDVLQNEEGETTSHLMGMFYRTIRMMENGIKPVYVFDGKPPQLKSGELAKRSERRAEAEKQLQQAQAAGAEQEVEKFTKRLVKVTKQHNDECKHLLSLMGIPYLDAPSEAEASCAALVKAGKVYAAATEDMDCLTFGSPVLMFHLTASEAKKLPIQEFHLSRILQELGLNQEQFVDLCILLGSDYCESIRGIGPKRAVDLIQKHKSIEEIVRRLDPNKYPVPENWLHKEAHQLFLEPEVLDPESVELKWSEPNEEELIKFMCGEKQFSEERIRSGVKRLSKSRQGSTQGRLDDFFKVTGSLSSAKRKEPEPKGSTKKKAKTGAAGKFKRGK

Molecule | percent lower interaction than with wild-type hFEN1 [1] [%] | binding result [2]
Cyclin E (from UniProt P24864 1-410) (natural protein) | 70 | –
CDK2 (from UniProt P24941 1-298) (enzyme) | 40 | –
B1 | – | binds
